Entries after “also recorded” stand apart in the source; their conditions may differ.
B1: TRAIL.R1-4: 6His TRAIL 95-281 with 199Val, 201Arg, 213Trp and 215Asp (protein)
chain: TSEETISTVQEKQQNISPLVRERGPQRVAAHITGTRGRSNTLSSPNSKNEKALGRKINSWESSRSGHSFLSNLHLRNGELVIHEKGFYYIYSQTYFRFQEEIKEVTRNDKQMVQYIYKWTDYPDPILLMKSARNSCWSKDAEYGLYSIYQGGIFELKENDRIFVSVTNEHLIDMDHEASFFGAFLVG
B2: TRAIL.R1-2: His-TRAIL (95-281) with 213Trp and 215Asp (Y213W;S215D) (protein)
chain: TSEETISTVQEKQQNISPLVRERGPQRVAAHITGTRGRSNTLSSPNSKNEKALGRKINSWESSRSGHSFLSNLHLRNGELVIHEKGFYYIYSQTYFRFQEEIKENTKNDKQMVQYIYKWTDYPDPILLMKSARNSCWSKDAEYGLYSIYQGGIFELKENDRIFVSVTNEHLIDMDHEASFFGAFLVG
B3: TRAIL.R1-5a: His-TRAIL (95-281) with 189Ala, 199Val, 201Arg, 213Trp, 215Asp (protein)
chain: TSEETISTVQEKQQNISPLVRERGPQRVAAHITGTRGRSNTLSSPNSKNEKALGRKINSWESSRSGHSFLSNLHLRNGELVIHEKGFYYIYSQTAFRFQEEIKEVTRNDKQMVQYIYKWTDYPDPILLMKSARNSCWSKDAEYGLYSIYQGGIFELKENDRIFVSVTNEHLIDMDHEASFFGAFLVG
B4: TRAIL.R1-1: His-TRAIL (95-281) with single substitution Tyr189Ala (protein)
chain: TSEETISTVQEKQQNISPLVRERGPQRVAAHITGTRGRSNTLSSPNSKNEKALGRKINSWESSRSGHSFLSNLHLRNGELVIHEKGFYYIYSQTAFRFQEEIKENTKNDKQMVQYIYKYTSYPDPILLMKSARNSCWSKDAEYGLYSIYQGGIFELKENDRIFVSVTNEHLIDMDHEASFFGAFLVG
B5: TRAIL R191L: Arg191Leu single mutant of His-TRAIL (protein)
chain: TSEETISTVQEKQQNISPLVRERGPQRVAAHITGTRGRSNTLSSPNSKNEKALGRKINSWESSRSGHSFLSNLHLRNGELVIHEKGFYYIYSQTYFLFQEEIKENTKNDKQMVQYIYKYTSYPDPILLMKSARNSCWSKDAEYGLYSIYQGGIFELKENDRIFVSVTNEHLIDMDHEASFFGAFLVG
B6: TRAIL N199V: Asn199Val single mutant of His-TRAIL (protein)
chain: TSEETISTVQEKQQNISPLVRERGPQRVAAHITGTRGRSNTLSSPNSKNEKALGRKINSWESSRSGHSFLSNLHLRNGELVIHEKGFYYIYSQTYFRFQEEIKEVTKNDKQMVQYIYKYTSYPDPILLMKSARNSCWSKDAEYGLYSIYQGGIFELKENDRIFVSVTNEHLIDMDHEASFFGAFLVG

Columns and labels:
Type in all cases: cell-based
TRAIL-R1 (DR4) = target: T1, TRAIL-R1 (DR4) (Homo sapiens, UniProt O00220); assay: TRAIL-R1 selective apoptotic signalling (Ramos versus Jurkat cells); settings: from apoptosis in Ramos (TRAIL-R1) and Jurkat (TRAIL-R2) cells
T1 construct: Ramos and Jurkat cells, which signal predominantly through TRAIL-R1 and TRAIL-R2, respectively; endogenous in cells; host or cells: Ramos cells (Jurkat cells as TRAIL-R2 comparison)
Description: Another test involves the assay of the effect in R1- (DR4-) only cells. This is the preferred test for DR4 selectivity as discussed herein. Preferably the ligand is applied to an R1-only signalling cell. Preferably the cell is a Ramos cell. Preferably the read-out is functional activity, preferably death-inducing activity (apoptosis). This is crucial to the test—mere binding is not as robust an indicator as functional induction of death. Thus, preferably a DR4 selective ligand according to the present invention induces death in a DR4 only signalling cell, such as a Ramos cell.
(§1) Ramos, an Epstein-Barr virus-negative Burkitt's lymphoma cell line, and Jurkat T cells (clone E6-1) were cultured as described (MacFarlane et al (2005 Cell Death and Differentiation vol 12 pages 773-782)). Blood samples were obtained from CLL patients, with patient consent and local ethical committee approval and CLL cells purified as described (MacFarlane et al (2002 Oncogene 21, 6809-6818). Cells were incubated for 16 h with depsipeptide (10 nM), provided by Dr. E. Sausville (NCI, USA). Cells were then cultured for a further 6 h with either HGSETR1 or HGS-ETR2, agonistic mAbs to TRAIL-R1 or -R2, respectively (Human Genome Sciences, Rockville, Md.), His-TRAIL-LE (a recombinant TRAIL with low endotoxin—Alexis Corporation, Nottingham, UK), His-TRAIL, a similar form of human recombinant TRAIL (MacFarlane et al (1997 J Biol Chem 272, 25417-25420)) but not further purified to reduce endotoxin levels or a mutant form of His-TRAIL as described (MacFarlane et al., 2005 ibid.). Cell lines were also pre-incubated for 30 min with a TRAIL-R1 blocking Ab and a TRAIL-R2 neutralizing Ab from Alexis and R&D systems, respectively, prior to exposure to TRAIL. Freshly isolated cells from patients with MCL were isolated, purified and incubated with different forms of TRAIL as described above for CLL cells. Samples were either analyzed immediately for apoptosis or stored at −80° C. for subsequent Western blotting. Other methods and reagents were as described (Inoue (2004 Cell Death Differ 11 Suppl 2, S193-206); MacFarlane et al., 2005 ibid).
(§2) Apoptosis was quantified by phosphatidylserine (PS) externalization in the presence of propidium iodide as described (MacFarlane et al., 2002 ibid.). Samples for Western blot analysis were prepared and caspase processing detected as described (Inoue et al., 2004 ibid.; MacFarlane et al., 2005 ibid.).
Referring to FIG. 4: Ramos cells (A) and Jurkat cells (B) were cultured with increasing concentrations of Arg191Leu or Asn199Val single mutants of His-TRAIL ([…]) or His-TRAIL (500 ng/ml), ETR1 or ETR2 (1000 ng/ml) for 4 h. Apoptosis was quantified by measuring the % PS+ cells and results shown in FIG. 4 are the Mean±SEM of three independent experiments. Thus the biological importance TRAIL residues R191 and N199 in TRAIL-R1 selectivity is shown.

Ramos cells = assay: Apoptosis by phosphatidylserine (PS) externalization in Ramos cells; settings: for % PS+ cells, Ramos: 4 h exposure, 500 ng ml^−, Mean ± SEM of at least three determinations; for ability to induce apoptosis in Ramos cells (in words): PS externalization, compared with wt TRAIL
Protocol: (§3) Cells were also exposed to HGS-ETR1 or HGSETR2 (1 μg ml^−1). C: Ramos or Jurkat cells were pre-incubated for 30 min either alone or with TRAIL-R1 blocking Ab or TRAIL-R2 neutralizing Ab (5 μg ml^−1). […] D: Ramos and Jurkat cells were exposed to wt TRAIL or TRAIL mutants as described above and processing of caspase-3 and -8 determined by Western blot analysis. The asterisk indicates a non-specific band. The lower panel of the blot for detection of the caspase-8 p18 subunit was exposed for twice as long as the upper panel. Apoptosis was assessed by phosphatidylserine externalization and results expressed as the Means±SEM of at least 3 separate determinations.
as §1, §2
Ramos and Jurkat T cells (clone E6-1) were cultured as described (MacFarlane et al, 2005 ibid.). The breast tumour cell line, MCF-7 (clone F43) was cultured as described previously (MacFarlane et al., 2000 J. Cell Biol. 148, 1239-1254). Cells were cultured for either 4 h (Ramos and Jurkat) or 6 h (MCF-7) with His-TRAIL (MacFarlane et al, 1997 J Biol Chem 272, 25417-25420), HGS-ETR1 or HGS-ETR2 (Human Genome Sciences), or a mutant form of His-TRAIL (MacFarlane et al, 2005 ibid.). Samples were analyzed for apoptosis, Western blotting, or TRAIL DISC activation as described (MacFarlane et al, 2005 ibid.; MacFarlane et al. 2002 Oncogene 21, 6809-6818). Mutants of His-TRAIL (residues 95-281) were generated using the Quik-Change site-directed mutagenesis kit (Stratagene, Calif.), confirmed by DNA sequencing, expressed in E. coli and purified as described (MacFarlane et al, 1997 ibid.). For siRNA targeting of TRAIL-R1/-R2, MCF-7 cells were seeded into six-well plates immediately prior to effectene-mediated RNAi transfection with either a negative control siRNA (30 nM, Ambion, #4611), or preannealed siRNA oligonucleotides for TRAIL-R1 or TRAIL-R2 (30 nM, Ambion), with the sequence and validity described (Ren et al, 2004 Mol. Biol. Cell vol 15 pp 5064-5074). After 40 h of transfection the cells were collected and total TRAIL-R1 or TRAIL-R2 levels assessed. […]

Jurkat cells = assay: Apoptosis by phosphatidylserine (PS) externalization in Jurkat cells; settings: for % PS+ cells, Jurkat: 4 h exposure, 500 ng ml^−, Mean ± SEM of at least three determinations; for ability to induce apoptosis in Jurkat cells (in words): PS externalization, compared with wt TRAIL
Protocol: as §3, with “determinations. […]” for “determinations.”
as §2
Ramos and Jurkat T cells (clone E6-1) were cultured as described (MacFarlane et al, 2005 ibid.). The breast tumour cell line, MCF-7 (clone F43) was cultured as described previously (MacFarlane et al., 2000 J. Cell Biol. 148, 1239-1254). Cells were cultured for either 4 h (Ramos and Jurkat) or 6 h (MCF-7) with His-TRAIL (MacFarlane et al, 1997 J Biol Chem 272, 25417-25420), HGS-ETR1 or HGS-ETR2 (Human Genome Sciences), or a mutant form of His-TRAIL (MacFarlane et al, 2005 ibid.). Samples were analyzed for apoptosis, Western blotting, or TRAIL DISC activation as described (MacFarlane et al, 2005 ibid.; MacFarlane et al. 2002 Oncogene 21, 6809-6818). Mutants of His-TRAIL (residues 95-281) were generated using the Quik-Change site-directed mutagenesis kit (Stratagene, Calif.), confirmed by DNA sequencing, expressed in E. coli and purified as described (MacFarlane et al, 1997 ibid.). For siRNA targeting of TRAIL-R1/-R2, MCF-7 cells were seeded into six-well plates immediately prior to effectene-mediated RNAi transfection with either a negative control siRNA (30 nM, Ambion, #4611), or preannealed siRNA oligonucleotides for TRAIL-R1 or TRAIL-R2 (30 nM, Ambion), with the sequence and validity described (Ren et al, 2004 Mol. Biol. Cell vol 15 pp 5064-5074). After 40 h of transfection the cells were collected and total TRAIL-R1 or TRAIL-R2 levels assessed. Where indicated, RNAi transfected MCF-7 cells were either left untreated or exposed to wt-TRAIL and apoptosis assessed by the extent of Bax activation, determined using the conformation specific Bax MAb, clone 3 (Dewson et al, 2003 Oncogene vol 22 pp 2643-54).

| Molecule | receptor selectivity of apoptotic activity (in words) (TRAIL-R1 (DR4)) | % PS+ cells, Ramos (Ramos cells) [%] | ability to induce apoptosis in Ramos cells (in words) (Ramos cells) | % PS+ cells, Jurkat (Jurkat cells) [%] | ability to induce apoptosis in Jurkat cells (in words) (Jurkat cells) |
| --- | --- | --- | --- | --- | --- |
| B1 | good R1 selective activity; also recorded: a degree of selectivity for TRAIL-R1 | 43.5 ± 2.5 | retained the activity of wt TRAIL | 25.0 ± 2.6 | decreased activity; also recorded: lost some activity |
| B2 | neither specific for TRAIL-R1 nor R2; also recorded: did not show any differential effects | 42.2 ± 3.1 | very similar activity to wt TRAIL | 46.6 ± 3.1 | very similar activity to wt TRAIL |
| B3 |  | 18.9 ± 0.7 | markedly diminished activity | 6.6 ± 0.4 | complete inactivity |
| B4 |  | 30.6 ± 2.9 | decreased ability to induce apoptosis | 24.9 ± 2.2 | decreased ability to induce apoptosis |
| B5 | TRAIL-R1 selective |  |  |  |  |
| B6 | TRAIL-R1 selective |  |  |  |  |

Source: patent publication US20090325867A1, “RECEPTOR-SPECIFIC TUMOUR NECROSIS FACTOR-RELATED APOPTOSIS-INDUCING LIGAND (TRAIL) VARIANTS” (MEDICAL RESEARCH COUNCIL, priority 2005, published 2009)
